Laboratory results reported in the DeepSol protein solubility set.

assay: soluble on expression in E. coli; label from the status in PepcDB or PDB records

| Sequence | soluble on expression in E. coli |
| --- | --- |
| MLRDLRETDVKAICDINQEALGYTFSPEETASQLARLSQDSHHFLLGYEDAANHVLLGYVHAEVYESLYSKAGFNILALAVSPQAQGQGIGKSLLQGLEEEAKRCGYGFIRLNSANHRLGAHAFYEKVGYTCDKMQKRFIRIC | not soluble |
| MLRIAKEALTFDDVLLVPAHSTVLPNTADLSTQLTKTIRLNIPMLSAAMDTVTEARLAIALAQEGGIGFIHKNMSIERQAEEVRRVKKHESGVVTDPQTVLPTTTLHEVKALTERNGFAGYPVVTEDNELVGIITGRDVRFVTDLNQPVSVYMTPKERLVTVREGEAREVVLAKMHEKRVEKALVVDDNFHLLGMITVKDFQKAERKPNSCKDEQGRLRVGAAVGAGAGNEERVDALVAAGVDVLLIDSSHGHSEGVLQRIRETRAKYPDLQIIGGNVATGAGARALAEAGCSAVKVGIGPGSICTTRIVTGVGVPQITAVSDAVEALEGTGIPVIADGGIRFSGDIAKAIAAGASAVMVGSMLAGTEESPGEIELYQGRSYKSYRGMGSLGAMSKGSSDRYFQSDNAADKLVPEGIEGRVAYKGRLKEIIHQQMGGLRSCMGLTGCATIDELRTKAEFVRISGAGIQESHVHDVTITKESPNYRLGS | not soluble |
| MLRISRDLVIDEDDIEIGFVRASGPGGQNVNKVATSAQLRFDTRKLTLPEDATIRLARIAGQRMTKDGVIVIHAQRFRTQERNRQDAIDRLVEILSEAMIRPKPRRATRPTFGSKQRRLEGKKRRSDVKAGRGRSFDDLEHHHHHH | soluble |
| MLRKADIKDLNACLSLFEQSVKTLCAKDYTKDQICAWIKIDRQQWEEKFKYDEIFVYEKRGKIASFISVKQEQKLLDLLFTHPDFVRQGLAQNLLDFILKTYLHNEIYTFASLSAKDFFLKNGFELIRENKVIKEGQNLKKILMKKDVIYKN | not soluble |
| MLRKQARQRREYLYNKALTERLKSKQKIQETVVKSINENKAIGSKNVKKSLTAYKSLKYADEGVDDRTVNDEYHYAGCEDPKIMLTTSHNPSSRLKMFMKELRLIIPNAQQMNRGNYQLTTLMHACRANNVTDFLIVHEHRGIPDSLVVCHLPYGPTAFFNISDVVMRHDIPDIGHMSEQKPHLIFNNFKTPIGLRTVKILKHLFPVPKENSQRVMSFLNHNDSIIFRHHQYKYVNKELELTEVGPRFSLKLYQIKLGTLENIKAADTEWINRPYMNTSQKRLIFSNDPGIINKDTEALEHHHHHH | soluble |
| MLRLFKIQKAPLSQFSKASNEIVKDFIEKMEKAAGSGDKVKFSDCFTEDFQFFACSFTANKAQFVEKHLTNPNPEPVIPKYSNFDENDSKIKFTVSRRVGPEVNIVDFDLLRENDGPWRLQWGKVTTCP | not soluble |
| MLRRKPTRLELKLDDTEEFESVKKELESRKKQRDEVDVVGVATSSEMSGAAGGTADGKTREQMIHERIGYKPHPKPNTLPSLFGNLQF | soluble |
| MLRSFTIRTAKRDEMIDITSFVEETVRQANVTEGIAVVYCPHTTAGITINENADPDVKRDMMRRFDETYPWEHPLDRHMEGNTAAHMKASTVGASQHVIIHEGRLLLGRWQGVYFCEYDGPRHRTFYVKVIGG | not soluble |
| MLRSTVIVTAHRRKAFIKDAIESVMENSLKPTEIIVVKNFKDYQIDSFLETYHVKNIYTDDETLGGKISLGIYQSSGDILFFLDDDDLFSKDKIREVIYKFSKYDIGFYHNAQEVIHNKLTGSNLSTDNQRFMYYTSIDTRRLKELLYKFKAGFNGSSIVISRDLAMRCVDLLKNVNISVDTFLLFCAVENNLPIMIDFRKLTYYRIIMSQNSNTEVNDKLFKMLYEDALYFKQIFSSKALRDFIEMSIIQHDFLYKIISKKEISKRDALISMVKMLRYSLKYPNKWNFFLQGLSLLSVFSAEKSRSLYLKKVRSNSMLSILEHHHHHH | soluble |
| MLRYFRAFLPKEERFFDLFAQHTHTVVQGAQALQDMLRGGDETLVHCQRVSHFESEADNITREVLTAVRRTFITPFDRVDIKNLITSMDDAIDQMQQTAKAVILFEVREFEPPMREIGTLLVESANLVGRAVPLMQSIGPNLQMLTAMTEEITKLEGRVDDLHDIGLKELFLKHRNANTMDYIVGAEIYDHLEKVADRFDDVANEINSIVIEQVAAALEHHHHHH | soluble |
| MLSGPHPSPTFRPNPCPWPCLHSLWMEISPTQLCFLSPGPSPQSPSCCFQGMNSGSELGKLWRKLFKGIPRLSVSHFDFYCGTCVLLGRPQIPQGSSLGNDIDQYPVVFRNASDQGSWMQLEMLLRKLSDLVWTSDALSDKILEDGLVP | soluble |
| MLSKGAVIDKLKSYKPCENCNGPISKTVSISDLNLDKRKRNCVCGNSQLDDVMLDVLNLMSEYNELQNTDLKDVTLRDAGTPLVEIGYPLKYLPVVSNDELIVMKDVSKACATEILKIPEVKGVISNNSKNNSFNRVEDSGEVNALIAGDDFRCDIFVLKSIMDCVVICKNQSKVHIEFPRPFNPKIAKIDRLNLKGKVVVDGFCGSGTLGLAALKKGAKKVIFSDINPHALKDVIYNLKLNFSKEVFDRIEIINSDFLNLDIVGDVCFVDLFPHMDKEPFLNKAKTISKQVVLILEHHHHHH | not soluble |
| MLSKRLLNFESFEVMDILALAQKLESEGKKVIHLEIGEPDFNTPKPIVDEGIKSLKEGKTHYTDSRGILELREKISELYKDKYKADIIPDNIIITGGSSLGLFFALSSIIDDGDEVLIQNPCYPCYKNFIRFLGAKPVFCDFTVESLEEALSDKTKAIIINSPSNPLGEVIDREIYEFAYENIPYIISDEIYNGLVYEGKCYSAIEFDENLEKTILINGFSKLYAMTGWRIGYVISNDEIIEAILKLQQNLFISAPTISQYAALKAFEKETEREINSMIKEFDRRRRLVLKYVKDFGWEVNNPIGAYYVFPNIGEDGREFAYKLLKEKFVALTPGIGFGSKGKNYIRISYANSYENIKEGLERIKEFLNK | soluble |
| MLSKTVFDASQERMEVIFSEFDNIIVSFSGGKDSAVMLHLMIDYIRKNNIQKKIYVYHLDYEGQYSATSDFVAEMLTSNLDIIEPLWCCLPIAAQSAVSMYTDHWIPWEKSKQDIWVREMPDYPSVINEDNAPFDFDFHTIWDYEFNKKLIHWLHTKNKAEKTIALIGIRQQESLNRYNAIHKKERMYKNYNWTTEISKNIYNAYPIHDWLVEDIWTANAKFDWPYNKIYDLFYQAGLTLNDMRVASPFNDSATESLKLYRVIEPALWSKLVGRVNGANFTAIYGGTSAMAWKEINLPPNHTWKSYLEFLLTTLPSYTRERYLKKFKTSINYWTEKGGALKVETVEELKNLNVQADFLGKPQNKRTYSNPMEIVRFKEYPDDLKIKEFASVPTYKRMCIAILKNDYTCKYMGFGQTKLELEKRKHALEKYNNIL | not soluble |
| MLSLTAHLVLISTIIVKCSAFSKKPSERAKPAAVKKAVEDKQPVKVTAFEQASLNEDKAEAMSNIEPSPKISNSTVPTAPTPKKEKKVVATTKKTERSVAQGPPLVSEHIKDEKKMPSVHKPIRKGSIYANELLTEKPLTDTEPELHPDNHVVKAKSPKPVARTPTARHRNALKPGKINDKSDDTLHDAPSIQKVGGPSYEDAASVNEKEKDVNPK | not soluble |
| MLSMLSKISFTRPQAQELLRRLQAPRHLLQVVLGPRQVGKTTLALQVAQTCGLPYHYASADEPTLKEAPWLETQWTLARRLAQAGEALLVLDEAQKVLGWSETLKRLWDEDTLRGLPLKVVLLGSSPLLLQKGLSESLAGRFEVLHLPHWSFYEMERAFGYTLPEYLYFGGYPGAAPLREEPERFARYIKDALLETTLGRDILLHTRVEKPALLRRVLELGLLYSGQVLSYTKMLGQLQDAGNTVTLAYYLELLEGAGLLGALQKYAAEPIRRRASSPKLLALNTGLITAVLGLSPEEVWEDAALMGRLVETAVGAHLLAHAHQGGFEVYYWRERDQEVDFVLQKGKRLLALEVKSAPSKRTQGLEAFTRTFGAKGLLVGPEGVPLEAFLRDNPLNFL | soluble |
| MLSSKFPLLVATDLSPTGKVVLEKAFKLAKRYHKPLFILHVSETTLFAPKIIELTQIEANLCKLLEPFYARYPEVKATLLCRQGGIEESIISAIKETQASLLLIGTSGEDNLLREFFLGSHCRKIIRSSTIPVLVVKNEEESDYSKIFIPTDFSPSSQKMANLTLHLFPHAYISLFHVILKPFEQRLGMYGLDKDEILRYHKDIDNQSASEADHFIEKLKLPSGKHRIKLLMETGVFSAKLCLQKVKEAQSDLIALNTTGNISFFSMDILNQSPKDVLIFKTDSE | not soluble |
| MLSSSGHAIRRGITTSAALSNKHAFIVGAARTPIGSFRSSLSSVTAPELASVAIKAALERGAVKPSSIQEVFLGQVCQANAGQAPARQAALGAGLDLSVAVTTVNKVCSSGLKAIILAAQQIQTGHQDFAIGGGMESMSQVPFYVQRGEIPYGGFQVIDGIVKDGLTDAYDKVHMGNCGEKTSKEMGITRKDQDEYAINSYKKSAKAWENGNIGPEVVPVNVKSKKGVTIVDKDEEFTKVNFDKFTSLRTVFQKDGTITAANASTLNDGAAAVIVASQEAVSEQSLKPLARILAYGDAATHPLDFAVAPTLMFPKILERAGVKQSDVAQWEVNEAFSCVPLAFIKKLGVDPSLVNPHGGAVSIGHPIGMSGARLITHLVHTLKSGQIGVAAICNGGGGSSGMVIQKL | not soluble |
| MLSTEDFDFDLPEELIAQTPLKDRASSRLLVVNKETGDMEDKHFHDILDELQPGDALVMNNTRVLPARLYGEKPETGGHLEVLLLTNTEGDTWETLIKPAKRAKVGTEIQFGDGRLKAVVKEELEHGGRIIEFKYDGIFLEILESLGEMPLPPYIKERLDDPDRYQTVYAEENGSAAAPTAGLHFTKELLEEIKAKGVHLVYLTLHVGLGTFRPVSVDNIEEHHMHSEFYRLTEEAAKQLNEVRQAGGRIVAVGTTSIRTLETIGTKFNGEIQADSGWTDIFITPGYQFKVVEAFSTNFHLPKSTLVMLVSAFAGKDLTLAAYQHAIEEKYRFFSFGDAMFIK | not soluble |
| MLTCTVDTQFGRLTLREEAGALVSVSWGSAAREDASELLQRASLQVSEYDQGARQQFDLPVRIRGSAFQRAVCDAICAIPFGDTCTYGDIARALGVPAQAVGQACGANPIPIIIPCHRVMGAKGLTGFSGVGGVETKVALLRHEGAAGLLILEHHHHHH | not soluble |
| MLTLAEKLLLIGLNDETGKVHYQASTALPYGLAGAVLADLMLLGKVELQGKNIVVVDPKPVGQPIFDKALHIINKTPRKRNAKYWVQRLKRDLKTLRQDVLTLLIEQGILKEEKRKILGLFETRTYPAVDGEMEEQVKEKLRVLVLQPTEIEENKELAQERTLVLLSLVNACDLLRQVFDRQEARVVKKQVKHLTKDVPVSKAVKEMVDAINASVVLAITSAAVVTSSSSSSNLEHHHHHH | soluble |
| MLTREDIFKHVKEKYGTSPDYPWEKYPNYASLRHTSNKKWYGLIMNVLPEKLGLDGHGEIDILNLKCPPEISDRLRNGENILPGYHMDKEHWISIVLERTDPEGEIYNLIEQSFHLTKLEHHHHHH | soluble |
| MLTVHHLNQSRSQRILWALEELALPYQIVRYQREKTMLAPPALKKVHPLGKSPVIEDHGMVIAESGAILEYLQDTYDSIGRFKPADAQGKQHYRFWLHYAEGSLMPLLLMRLLFTSLGKPPVPLGLRTLGGVIGKGAQKAYLNPQLETHARFIDGHLANHPWFAGEQLSMADIQMSFPLFALLARGGIAHLDHINAWKARVEMRPAWQRAIQQGGPFTIPGG | not soluble |
